B1: Bacillus subtilis scaffold protein SufU (natural protein)
chain: MSFNANLDTLYRQVIMDHYKNPRNKGVLNDSIVVDMNNPTCGDRIRLTMKLDGDIVEDAKFEGEGCSISMASASMMTQAIKGKDIETALSMSKIFSDMMQGKEYDDSIDLGDIEALQGVSKFPARIKCATLSWKALEKGVAKEEGGN
notes: Fe-S cluster scaffold protein SufU of Bacillus subtilis; also called BsSufU
B4: Bacillus subtilis cysteine desulfurase SufS (enzyme)
chain: MNITDIREQFPILHQQVNGHDLVYLDSAATSQKPRAVIETLDKYYNQYNSNVHRGVHTLGTRATDGYEGAREKVRKFINAKSMAEIIFTKGTTTSLNMVALSYARANLKPGDEVVITYMEHHANIIPWQQAVKATGATLKYIPLQEDGTISLEDVRETVTSNTKIVAVSHVSNVLGTVNPIKEMAKIAHDNGAVIVVDGAQSTPHMKIDVQDLDCDFFALSSHKMCGPTGVGVLYGKKALLENMEPAEFGGEMIDFVGLYESTWKELPWKFEAGTPIIAGAIGLGAAIDFLEEIGLDEISRHEHKLAAYALERFRQLDGVTVYGPEERAGLVTFNLDDVHPHDVATVLDAEGIAVRAGHHCAQPLMKWLDVTATARASFYLYNTEEEIDKLVEALQKTKEYFTNVF
modifications: pyridoxal-5'-phosphate bound to Lys224 as an aldimine; Cys361-persulfide (in the crystal)
notes: cysteine desulfurase SufS of Bacillus subtilis; The structure 'could be built to completeness'; also called BsSufS

How the values were obtained:
[1] = target: B4; assay: HDX-MS; 60 μM of each component in 25 mM Tris-Cl pH 7.5, 100 mM NaCl; exchange in D2O buffer at 25°C for 15, 30, 60 or 600 s; online pepsin digestion; conditions: both partners purified
[2] = target: B4; assay: MST; labelled BsFra (0.25 μM) mixed 1:1 with a dilution series of the partner (560 μM to 0.030 μM); 25 mM Tris-Cl, 100 mM NaCl, 10 mM 2-mercaptoethanol, pH 7.5; 25°C; Hill model; average of three measurements; conditions: both partners purified
[3] = target: B1; assay: as above; conditions: both partners purified
BsSufS/BsSufU complex = target: T1, BsSufS/BsSufU complex (Bacillus subtilis, UniProt O32164 1-406; O32163 1-147); assay: as above; conditions: both partners purified
T1 construct: cysteine desulfurase SufS of Bacillus subtilis, as the chain of m1; scaffold protein SufU of Bacillus subtilis, as the chain of m2; SufS is described as a homodimer; also called BsSufU/BsSufS; SufS/SufU complex; copies: 2 +

[4] = target: B1; assay: HDX-MS; 60 μM of each component in 25 mM Tris-Cl pH 7.5, 100 mM NaCl; exchange in D2O buffer at 25°C for 15, 30, 60 or 600 s; online pepsin digestion; conditions: both partners purified
[5] = target: the molecule itself; assay: crystal structure; BsSufS crystallised at 20 mg/ml in 0.1 M HEPES pH 7.5, 50% (v/v) PEG 400, 20°C; one molecule in the asymmetric unit, homodimer across the crystallographic symmetry axis; 1.7 Å

B1: binds [1].

B2: fluorophore-labelled BsFra (natural protein, Bacillus subtilis)
chain: MDVFSEYLAGIADPFHRERTEEVLTWIKNKYPNLHTEIKWNQPMFTDHGTFIIGFSVSKKHLAVAPEKVTIAHVEDDIVKAGYDYTEQLIRIPWNGPVDYTLLEKMIEFNILDKADCSTFWRK
modifications: labelled with the Monolith NT.115 Protein Labeling Kit RED MALEIMID (cysteine-reactive)
notes: frataxin homolog Fra (formerly YdhG) of Bacillus subtilis, as the chain of m3; Same protein as m3, with a red fluorophore on cysteine for MST; also called labeled BsFra; fluorophore-tagged frataxin
For B2, the Kd [2] was 50.6 ± 17.4 µM, the Kd [3] was 57.4 ± 13.8 µM and the Kd (BsSufS/BsSufU complex) was 32.5 ± 3.6 µM.

B3: Bacillus subtilis frataxin homolog Fra (natural protein)
chain: MDVFSEYLAGIADPFHRERTEEVLTWIKNKYPNLHTEIKWNQPMFTDHGTFIIGFSVSKKHLAVAPEKVTIAHVEDDIVKAGYDYTEQLIRIPWNGPVDYTLLEKMIEFNILDKADCSTFWRK
notes: frataxin homolog Fra (formerly YdhG) of Bacillus subtilis; Unlabelled form, used in H/DX and activity assays; also called BsFra; YdhG (former name)
B3: binds [1]; binds [4].

With B4 the “stoichiometry N” value [5] was 2.

From paper PMC4934914, “Crystal Structure of Bacillus subtilis Cysteine Desulfurase SufS and Its Dynamic Interaction with Frataxin and Scaffold Protein SufU” (PLoS ONE, 2016)
